{"source": "patent US20240252614A1", "binders": {"B1": {"name": "MPE8 mAb (antibody, V domains shown)", "VH": "EVQLVESGGGLVKPGGSLRLSCAASGFTFSSYSMNWVRQAPGKGLEWVSSISASSSYSDYADSAKGRFTISRDNAKTSLFLQMNSLRAEDTAIYFCARARATGYSSITPYFDIWGQGTLVTVSS", "VL": "QSVVTQTPSVSGAPGQRVTISCTGSSSNIGAGYDVHWYQQLPGTAPKLLIYDNNNRPSGVPDRFSASKSGTSASLAITGLQAEDEADYYCQSYDRNLSGVFGTGTKVTVL"}}, "conditions_in_all_cases": "remark: other sources report otherwise", "key": {"[1]": {"biological_target": "hMPV A F WT Control (hMPV A), Q6WB98", "assay": "BLI, no stress"}, "hMPV043 (hMPV A), Q6WB98": {"biological_target": "hMPV043 (hMPV A), Q6WB98", "assay": "BLI, no stress"}, "hMPV044 (hMPV A), Q6WB98": {"biological_target": "hMPV044 (hMPV A), Q6WB98", "assay": "BLI, no stress"}, "hMPV045 (hMPV A), Q6WB98": {"biological_target": "hMPV045 (hMPV A), Q6WB98", "assay": "BLI, no stress"}, "hMPV046 (hMPV A), Q6WB98 [2]": {"biological_target": "hMPV046 (hMPV A), Q6WB98", "assay": "BLI, no stress"}, "hMPV047 (hMPV A), Q6WB98": {"biological_target": "hMPV047 (hMPV A), Q6WB98", "assay": "BLI, no stress"}, "hMPV048 (hMPV A), Q6WB98": {"biological_target": "hMPV048 (hMPV A), Q6WB98", "assay": "BLI, no stress"}, "hMPV049 (hMPV A), Q6WB98 [3]": {"biological_target": "hMPV049 (hMPV A), Q6WB98", "assay": "BLI, no stress"}, "hMPV050 (hMPV A), Q6WB98": {"biological_target": "hMPV050 (hMPV A), Q6WB98", "assay": "BLI, no stress"}, "hMPV052 (hMPV A), Q6WB98 [4]": {"biological_target": "hMPV052 (hMPV A), Q6WB98", "assay": "BLI, no stress"}, "hMPV053 (hMPV A), Q6WB98": {"biological_target": "hMPV053 (hMPV A), Q6WB98", "assay": "BLI, no stress"}, "hMPV054 (hMPV A), Q6WB98": {"biological_target": "hMPV054 (hMPV A), Q6WB98", "assay": "BLI, no stress"}, "hMPV055 (hMPV A), Q6WB98": {"biological_target": "hMPV055 (hMPV A), Q6WB98", "assay": "BLI, no stress"}, "hMPV058 (hMPV A), Q6WB98": {"biological_target": "hMPV058 (hMPV A), Q6WB98", "assay": "BLI, no stress"}, "hMPV059 (hMPV A), Q6WB98 [5]": {"biological_target": "hMPV059 (hMPV A), Q6WB98", "assay": "BLI, no stress"}, "hMPV060 (hMPV A), Q6WB98 [6]": {"biological_target": "hMPV060 (hMPV A), Q6WB98", "assay": "BLI, no stress"}, "hMPV061 (hMPV A), Q6WB98": {"biological_target": "hMPV061 (hMPV A), Q6WB98", "assay": "BLI, no stress"}, "hMPV062 (hMPV A), Q6WB98 [7]": {"biological_target": "hMPV062 (hMPV A), Q6WB98", "assay": "BLI, no stress"}, "hMPV063 (hMPV A), Q6WB98": {"biological_target": "hMPV063 (hMPV A), Q6WB98", "assay": "BLI, no stress"}, "hMPV066 (hMPV A), Q6WB98": {"biological_target": "hMPV066 (hMPV A), Q6WB98", "assay": "BLI, no stress"}, "hMPV067 (hMPV A), Q6WB98 [8]": {"biological_target": "hMPV067 (hMPV A), Q6WB98", "assay": "BLI, no stress"}, "hMPV068 (hMPV A), Q6WB98": {"biological_target": "hMPV068 (hMPV A), Q6WB98", "assay": "BLI, no stress"}, "hMPV069 (hMPV A), Q6WB98": {"biological_target": "hMPV069 (hMPV A), Q6WB98", "assay": "BLI, no stress"}, "hMPV071 (hMPV A), Q6WB98": {"biological_target": "hMPV071 (hMPV A), Q6WB98", "assay": "BLI, no stress"}, "hMPV075 (hMPV A), Q6WB98 [9]": {"biological_target": "hMPV075 (hMPV A), Q6WB98", "assay": "BLI, no stress"}, "hMPV077 (hMPV A), Q6WB98": {"biological_target": "hMPV077 (hMPV A), Q6WB98", "assay": "BLI, no stress"}, "[10]": {"biological_target": "hMPV A F WT Control (hMPV A), Q6WB98", "assay": "BLI, no stress", "remark": "listed apart in the source"}, "hMPV080 (hMPV A), Q6WB98 [11]": {"biological_target": "hMPV080 (hMPV A), Q6WB98", "assay": "BLI, no stress"}, "hMPV046 (hMPV A), Q6WB98 [12]": {"biological_target": "hMPV046 (hMPV A), Q6WB98", "assay": "BLI, 50C stress"}, "hMPV049 (hMPV A), Q6WB98 [13]": {"biological_target": "hMPV049 (hMPV A), Q6WB98", "assay": "BLI, 50C stress"}, "hMPV052 (hMPV A), Q6WB98 [14]": {"biological_target": "hMPV052 (hMPV A), Q6WB98", "assay": "BLI, 50C stress"}, "hMPV059 (hMPV A), Q6WB98 [15]": {"biological_target": "hMPV059 (hMPV A), Q6WB98", "assay": "BLI, 50C stress"}, "hMPV060 (hMPV A), Q6WB98 [16]": {"biological_target": "hMPV060 (hMPV A), Q6WB98", "assay": "BLI, 50C stress"}, "hMPV062 (hMPV A), Q6WB98 [17]": {"biological_target": "hMPV062 (hMPV A), Q6WB98", "assay": "BLI, 50C stress"}, "hMPV067 (hMPV A), Q6WB98 [18]": {"biological_target": "hMPV067 (hMPV A), Q6WB98", "assay": "BLI, 50C stress"}, "hMPV075 (hMPV A), Q6WB98 [19]": {"biological_target": "hMPV075 (hMPV A), Q6WB98", "assay": "BLI, 50C stress"}, "[20]": {"biological_target": "hMPV A F WT Control (hMPV A), Q6WB98", "assay": "BLI, 68C stress"}, "hMPV080 (hMPV A), Q6WB98 [21]": {"biological_target": "hMPV080 (hMPV A), Q6WB98", "assay": "BLI, 68C stress"}}, "data": [{"binder": "B1", "values": [{"measurement": "Response Shift", "setting": "[1]", "result": 0.69, "unit": "nm"}, {"measurement": "Response Shift", "setting": "hMPV043 (hMPV A), Q6WB98", "result": 0.558, "unit": "nm"}, {"measurement": "Response Shift", "setting": "hMPV044 (hMPV A), Q6WB98", "result": 0.72, "unit": "nm"}, {"measurement": "Response Shift", "setting": "hMPV045 (hMPV A), Q6WB98", "result": 0.603, "unit": "nm"}, {"measurement": "Response Shift", "setting": "hMPV046 (hMPV A), Q6WB98 [2]", "result": 0.603, "unit": "nm"}, {"measurement": "Response Shift", "setting": "hMPV047 (hMPV A), Q6WB98", "result": 0.259, "unit": "nm"}, {"measurement": "Response Shift", "setting": "hMPV048 (hMPV A), Q6WB98", "result": 0.596, "unit": "nm"}, {"measurement": "Response Shift", "setting": "hMPV049 (hMPV A), Q6WB98 [3]", "result": 0.672, "unit": "nm"}, {"measurement": "Response Shift", "setting": "hMPV050 (hMPV A), Q6WB98", "result": 0.641, "unit": "nm"}, {"measurement": "Response Shift", "setting": "hMPV052 (hMPV A), Q6WB98 [4]", "result": 0.716, "unit": "nm"}, {"measurement": "Response Shift", "setting": "hMPV053 (hMPV A), Q6WB98", "result": 0.624, "unit": "nm"}, {"measurement": "Response Shift", "setting": "hMPV054 (hMPV A), Q6WB98", "result": 0.73, "unit": "nm"}, {"measurement": "Response Shift", "setting": "hMPV055 (hMPV A), Q6WB98", "result": 0.581, "unit": "nm"}, {"measurement": "Response Shift", "setting": "hMPV058 (hMPV A), Q6WB98", "result": 0.684, "unit": "nm"}, {"measurement": "Response Shift", "setting": "hMPV059 (hMPV A), Q6WB98 [5]", "result": 0.666, "unit": "nm"}, {"measurement": "Response Shift", "setting": "hMPV060 (hMPV A), Q6WB98 [6]", "result": 0.84, "unit": "nm"}, {"measurement": "Response Shift", "setting": "hMPV061 (hMPV A), Q6WB98", "result": 0.813, "unit": "nm"}, {"measurement": "Response Shift", "setting": "hMPV062 (hMPV A), Q6WB98 [7]", "result": 0.713, "unit": "nm"}, {"measurement": "Response Shift", "setting": "hMPV063 (hMPV A), Q6WB98", "result": 0.849, "unit": "nm"}, {"measurement": "Response Shift", "setting": "hMPV066 (hMPV A), Q6WB98", "result": 0.779, "unit": "nm"}, {"measurement": "Response Shift", "setting": "hMPV067 (hMPV A), Q6WB98 [8]", "result": 0.744, "unit": "nm"}, {"measurement": "Response Shift", "setting": "hMPV068 (hMPV A), Q6WB98", "result": 0.738, "unit": "nm"}, {"measurement": "Response Shift", "setting": "hMPV069 (hMPV A), Q6WB98", "result": 0.651, "unit": "nm"}, {"measurement": "Response Shift", "setting": "hMPV071 (hMPV A), Q6WB98", "result": 0.804, "unit": "nm"}, {"measurement": "Response Shift", "setting": "hMPV075 (hMPV A), Q6WB98 [9]", "result": 0.777, "unit": "nm"}, {"measurement": "Response Shift", "setting": "hMPV077 (hMPV A), Q6WB98", "result": 0.706, "unit": "nm"}, {"measurement": "Response Shift", "setting": "[10]", "result": 0.102, "unit": "nm"}, {"measurement": "Response Shift", "setting": "hMPV080 (hMPV A), Q6WB98 [11]", "result": 0.787, "unit": "nm"}, {"measurement": "Response Shift", "setting": "hMPV046 (hMPV A), Q6WB98 [12]", "result": 0.412, "unit": "nm"}, {"measurement": "Response Shift", "setting": "hMPV049 (hMPV A), Q6WB98 [13]", "result": 0.343, "unit": "nm"}, {"measurement": "Response Shift", "setting": "hMPV052 (hMPV A), Q6WB98 [14]", "result": 0.482, "unit": "nm"}, {"measurement": "Response Shift", "setting": "hMPV059 (hMPV A), Q6WB98 [15]", "result": 0.344, "unit": "nm"}, {"measurement": "Response Shift", "setting": "hMPV060 (hMPV A), Q6WB98 [16]", "result": 0.712, "unit": "nm"}, {"measurement": "Response Shift", "setting": "hMPV062 (hMPV A), Q6WB98 [17]", "result": 0.253, "unit": "nm"}, {"measurement": "Response Shift", "setting": "hMPV067 (hMPV A), Q6WB98 [18]", "result": 0.571, "unit": "nm"}, {"measurement": "Response Shift", "setting": "hMPV075 (hMPV A), Q6WB98 [19]", "result": 0.506, "unit": "nm"}, {"measurement": "Response Shift", "setting": "[20]", "result": 0.025, "unit": "nm"}, {"measurement": "Response Shift", "setting": "hMPV080 (hMPV A), Q6WB98 [21]", "result": -0.075, "unit": "nm"}]}]}
